The values below come from paper PMC7545097, “Mapping the native interaction surfaces of PREP1 with PBX1 by cross-linking mass-spectrometry and mutagenesis” (Scientific Reports, 2020).

Test in all cases: time-resolved fluorescence immunoassay (TR-FIA); plate coated with monoclonal anti-PBX1; PBX1 pre-incubated with PREP1 or MEIS1 for 1 h on ice, 10 µg/mL in 1% BSA PBS, 1 h at room temperature on the plate; detected with anti-PREP1 or biotinylated anti-MEIS1/2 and Eu^3+ conjugates; normalised to the wild-type protein taken as 1
Holding throughout (conditions): both partners purified

One assay addresses T1, PBX1 Δ77-84 (human, UniProt P40424 1-430, Δ77−84).
T1 construct: PBX1, residues 1-430, with an internal deletion; source: E. coli, purified
T1 sequence (looked up): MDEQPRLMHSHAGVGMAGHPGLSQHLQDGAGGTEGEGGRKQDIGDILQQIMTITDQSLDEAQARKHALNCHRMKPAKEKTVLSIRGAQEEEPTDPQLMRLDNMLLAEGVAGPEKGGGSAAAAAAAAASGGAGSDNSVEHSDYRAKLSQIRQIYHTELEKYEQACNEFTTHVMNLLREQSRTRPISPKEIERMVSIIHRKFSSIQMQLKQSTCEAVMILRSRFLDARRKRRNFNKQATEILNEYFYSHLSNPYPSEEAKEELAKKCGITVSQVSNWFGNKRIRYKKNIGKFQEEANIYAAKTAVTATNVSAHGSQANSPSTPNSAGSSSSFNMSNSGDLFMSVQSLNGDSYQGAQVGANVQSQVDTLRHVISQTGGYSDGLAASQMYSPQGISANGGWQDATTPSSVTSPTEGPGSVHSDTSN

Another assay has as its target T2, PBX1 I197A (human, UniProt P40424 1-430, I197A).
T2 construct: PBX1, residues 1-430; source: E. coli, purified
T2 sequence (looked up): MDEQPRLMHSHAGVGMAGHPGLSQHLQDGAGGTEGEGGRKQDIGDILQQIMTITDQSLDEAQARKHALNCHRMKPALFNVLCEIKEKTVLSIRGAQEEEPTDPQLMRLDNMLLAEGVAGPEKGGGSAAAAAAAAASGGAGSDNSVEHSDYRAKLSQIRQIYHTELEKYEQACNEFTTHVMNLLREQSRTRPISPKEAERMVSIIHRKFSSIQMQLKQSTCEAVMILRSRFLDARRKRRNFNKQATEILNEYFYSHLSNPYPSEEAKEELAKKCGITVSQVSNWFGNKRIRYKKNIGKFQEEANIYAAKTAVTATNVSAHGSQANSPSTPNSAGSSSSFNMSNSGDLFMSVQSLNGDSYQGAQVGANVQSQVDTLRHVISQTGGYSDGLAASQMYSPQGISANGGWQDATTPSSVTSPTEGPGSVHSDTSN

Another assay deals with T3, PREP1 L63A (UniProt P55347 1-436, L63A).
T3 construct: PREP1 (PKNOX1), residues 1-436
T3 sequence (looked up): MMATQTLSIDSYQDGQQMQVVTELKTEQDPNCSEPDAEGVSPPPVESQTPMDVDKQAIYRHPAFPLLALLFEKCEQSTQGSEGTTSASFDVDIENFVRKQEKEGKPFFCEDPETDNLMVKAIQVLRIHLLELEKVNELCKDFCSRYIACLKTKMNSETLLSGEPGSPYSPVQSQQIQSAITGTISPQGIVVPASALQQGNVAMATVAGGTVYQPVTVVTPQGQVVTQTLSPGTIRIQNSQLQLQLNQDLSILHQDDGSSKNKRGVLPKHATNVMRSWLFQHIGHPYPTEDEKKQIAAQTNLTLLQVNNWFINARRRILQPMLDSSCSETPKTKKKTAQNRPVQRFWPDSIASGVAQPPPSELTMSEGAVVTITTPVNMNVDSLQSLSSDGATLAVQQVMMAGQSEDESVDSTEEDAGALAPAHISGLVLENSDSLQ

In a further assay the target is T4, PREP1 L70A (UniProt P55347 1-436, L70A).
T4 construct: PREP1 (PKNOX1), residues 1-436
T4 sequence (looked up): T3 sequence (looked up) with A63L, L70A

Residue numbers refer to the chain shown, from its start.

B1: PREP1_(1-436), wild-type recombinant (TR-FIA) (natural protein, UniProt P55347 1-436, looked up)
chain: T3 sequence (looked up) with A63L
notes: also called wild-type PREP1; PKNOX1; source: E. coli, purified
For B1, the “binding relative to wild type” value in the assay with PBX1 Δ77-84 was 35%; with PBX1 I197A it was around 65%.

B2: PBX1_(1-430), wild-type recombinant (natural protein, human, UniProt P40424 1-430, looked up)
chain: T2 sequence (looked up) with A197I
notes: also called wild-type PBX1; purified recombinant human PBX1; source: E. coli, purified
For B2, the binding result in the assay with PREP1 L63A and in the assay with PREP1 L70A was “binds” throughout.
